For assay [1], the target named is EBV gH/gL/gp42 heterotrimer (recombinant protein) (Epstein-Barr virus) (UniProt P03231). Kind of assay: BLI cross-competition; gH/gL/gp42 on the biosensor pre-saturated with primary mAb A10, then binding of this secondary mAb measured; high value = secondary blocked.
Assay [2] concerns the target Epstein-Barr virus glycoprotein 42 (gp42) (Epstein-Barr virus) (UniProt P03205). Kind of assay: cell-based or functional assay.
The target in assay [3] is EBV gH/gL/gp42 heterotrimer (recombinant protein) (Epstein-Barr virus) (UniProt P03231). Kind of assay: BLI cross-competition; gH/gL/gp42 on the biosensor pre-saturated with primary mAb F2-1, then binding of this secondary mAb measured (self pair); high value = secondary blocked.
Assay [4] has the same target. Kind of assay: BLI cross-competition; gH/gL/gp42 on the biosensor pre-saturated with primary mAb 4C12, then binding of this secondary mAb measured; high value = secondary blocked.
Assay [5] deals with T1, Epstein-Barr virus glycoprotein 42 (gp42) (Epstein-Barr virus, UniProt P03205 34-223, limits assumed).
T1 sequence: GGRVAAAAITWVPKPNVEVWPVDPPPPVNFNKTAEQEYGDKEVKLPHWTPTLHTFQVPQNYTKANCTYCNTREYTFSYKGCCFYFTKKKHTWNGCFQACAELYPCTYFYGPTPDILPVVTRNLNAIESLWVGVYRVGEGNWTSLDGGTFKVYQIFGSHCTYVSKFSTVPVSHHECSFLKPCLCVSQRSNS
Nature of the assay: cell-based or functional assay.

The target of assay [6] is T1, Epstein-Barr virus glycoprotein 42 …. Kind of assay: cell-based or functional assay. The source holds these as a separate data set.
The target is the same in assay [7]. Nature of the assay: cell-based or functional assay. This is another data set of the same source.
Assay [8] addresses T2, EBV gH/gL/gp42 heterotrimer (recombinant protein) (Epstein-Barr virus, UniProt P03231 19-679; P03212 23-137).
T2 construct: Recombinant complex; also called gH/gL/gh42
Kind of assay: BLI (Octet RED96e), biotinylated gH/gL/gp42 on streptavidin biosensors, Fab dilution series, 1:1 global fit.

The target in assay [9] is T2, EBV gH/gL/gp42 heterotrimer …. Nature of the assay: BLI, gH/gL/gp42 on the biosensor, dilution series of Fab (legend box shows 5.00E-07), 300 s association, dissociation to 1200 s.

Regarding “F2-1 monoclonal antibody (previously described murine anti-gp42 antibody)”, the cross-competition (name or unit not given) in assay [1] was determined as 100; in [3] it was 95.4; in [4] it was 8.9. This molecule also showed an IC50 titer to block glycoprotein-mediated B cell fusion in [2] of 111 µg/mL. In assay [2], the IC50 titer to neutralize EBV infection in B cells was 0.584 µg/mL.

B1: A10 monoclonal antibody (cynomolgus monkey variable regions on human IgG1 constant region) (antibody, V domains shown)
VH: QVQLQESGPGLVKPSQTLSLTCAISGDSVSSNSATWNWIRQSPSRGLEWLGRTYYRSKWYYDYAQSVQNRISINPDTSKNQFSLQLNSVTPEDMAVYYCARGDFDAFDFWGQGLRVTVSS
VL: SYELTQPPSVSAASGQTARITCGGDNIGSKNVQWYQQKPAQAPVLVIYADSKRPSGVPERFSGSNSGNTATLTISGVEAGDEADYYCQVWDRSSNIFGVGTRLTVLG
B1: in [5], the “IC50 titer to block glycoprotein-mediated B cell fusion” value was 2.41 µg/mL. Moreover, the “IC50 titer to neutralize EBV infection in B cells” value in [6] stood at 0.0391 µg/mL. Besides, in assay [7], the “effectiveness in blocking B cell fusion relative to F2-1” value is around 50 fold and the “neutralization potency relative to F2-1” value was around 14 fold.

B2: A10 Fab (Fab, V domains shown)
VH: QVQLQESGPGLVKPSQTLSLTCAISGDSVSSNSATWNWIRQSPSRGLEWLGRTYYRSKWYYDYAQSVQNRISINPDTSKNQFSLQLNSVTPEDMAVYYCARGDFDAFDFWGQGLRVTVSS
VL: SYELTQPPSVSAASGQTARITCGGDNIGSKNVQWYQQKPAQAPVLVIYADSKRPSGVPERFSGSNSGNTATLTISGVEAGDEADYYCQVWDRSSNIFGVGTRLTVLG
notes: Fab of A10
As to B2, the “IC50 titer to block glycoprotein-mediated B cell fusion” value in assay [5] was found to be 1.73 µg/mL. In [8], the Kd is 0.149 nM, the koff amounted to 0.000227 s⁻¹ and the kon came out at 1.54e+06 M⁻¹ s⁻¹.

B3: 4C12 Fab (Fab, V domains shown)
VH: EVQLQQSGPELVKPGASVKISCKASGYTFTDYNMHWVKQSHGKNLEWIGFIYLYNGGTGYNQNFKSKATLTVDNSSSTAYMELRSLTSEDSAVFYCARDYYGNPYAMDYWGQGTSVTVSS
VL: DIQMTQTTSSLSASLGDRVTISCRASQDISNYLNWYQQKPDGTVKLLIYYTSRLRSGVPSRFSGSGSGTDYSLTINNLEQEDIATYFCQQGNTLPFTFGSGTKLEIK
notes: Fab of mAb 4C12; how the Fab was made is not described
In the case of B3, the Kd in [9] is 57.9 nM.

The record behind these values is patent US20230348568A1 (US Dept. of Health and Human Services, published 2023).
